The assay concerns the target Aβ (amyloid beta peptide, length and aggregation state not specified; ˜4 kDa band) (UniProt P05067). The assay is described as follows: cell-based or functional assay.

“mouse CypD, endogenous, in brain mitochondria and cultured cortical neurons of nonTg and Tg mAPP mice (from UniProt Q99KR7 30-206) (enzyme)” yielded a mitochondrial ROS (MitoSox staining) in brain slices, Tg mAPP/CypD-/- versus Tg mAPP mice of 80%.

The values are drawn from patent US20100291074A1, “CYCLOPHILIN D-AMYLOID BETA INTERACTION POTENTIATES MITOCHONDRIAL DYSFUNCTION IN A TRANSGENIC MOUSE MODEL OF ALZHEIMER'S DISEASE” (COLUMBIA UNIVERSITY IN THE CITY OF NEW YORK, priority 2007, published 2010).
